Test results from article PMC7679444 (2020).

B1: GST-HA-ATG16L1(231–607) [human] / TMEM59 peptide (residues 268–280), wild type [modified: long spacer (Tds) at the N-terminal end, used for immobilisation; long spacer (Tds) at the N-terminal end, used for immobilisation] [not stated] (parent complex)
chain 1: PLPVEQDDDIEVIVDETSDHTEETSPVRAISRAATKRLSQPAGGLLDSITNIFGRRSVSSFPVPQDNVDTHPGSGKEVRVPATALCVFDAHDGEVNAVQFSPGSRLLATGGMDRRVKLWEVFGEKCEFKGSLSGSNAGITSIEFDSAGSYLLAASNDFASRIWTVDDYRLRHTLTGHSGKVLSAKFLLDNARIVSGSHDRTLKLWDLRSKVCIKTVFAGSSCNDIVCTEQCVMSGHFDKKIRFWDIRSESIVREMELLGKITALDLNPERTELLSCSRDDLLKVIDLRTNAIKQTFSAPGFKCGSDWTRVVFSPDGSYVAAGSAEGSLYIWSVLTGKVEKVLSKQHSSSINAVAWSPSGSHVVSVDKGCKAVLWAQY
chain 2: YVPSEKLSIYGDL

Variants of: B1
Test: peptide microarray; 800, 400 nM (n = 6); parent: 100; read off a plot

Row | Variant | percent of parent [% WT]
1 | chain 2 Y1A, chain 2 E5A, chain 2 Y10A, chain 2 L13A | ~1
